Values quoted from earlier work, collected in patent US9056141B2, “Thiol-ene click chemistry for drug conjugates” (priority 2012, dated 2015).

Conditions: patients receiving Adcetris treatment

**Q.** What does the source list for brentuximab vedotin [Adcetris]?
**A.** patients in clinical trials experiencing serious adverse events: 31%; patients discontinuing the treatment due to adverse events (clinical trials): 21%
